This passage reports stoichiometry N results from PMC8269962 (Nature, 2021).

This test concerns the target H3-I53_dn5B trimer (H3 HA ectodomain fused to the N terminus of I53_dn5B) (influenza A virus (H3N2)). Briefly: SEC. (In general: In gel filtration, larger molecules generally elute earlier.)

For orientation: stoichiometry N means the number of molecules, sites or subunits per partner or assembly.

Turning to “H3-I53_dn5B trimer (H3 HA ectodomain fused to the N terminus of I53_dn5B)”, the stoichiometry N was found to be 3.
